Experimental findings from article PMC7954794, “Protein context shapes the specificity of SH3 domain-mediated interactions in vivo” (Nature Communications, 2021) are described below.

Common to all, as to type: cell-based, Saccharomyces cerevisiae
The subject of one assay is BBC1. As to the kind of experiment: DHFR-PCA on solid medium, bait BBC1 (Fig. 1B). The following applies: bait BBC1, label = prey; for medrep (log2 median colony size normalized to plate background, PCA score): 2-4 replicates; for Ratio (SH3-deleted/WT medrep): only significant differences showed, PPIs completely lost have a ratio of 0.1 and the gained PPIs 2.5. The text has this:
(§1) Supplement 41467_2021_21873_MOESM8_ESM.xlsx, sheet "Fig1B" | column: medsize; medrep; Ratio; Score

Another assay has as its system ABP1. As to the kind of experiment: DHFR-PCA on solid medium, bait ABP1 (Fig. 1B). The note with it: bait ABP1, label = prey; 2-4 replicates.
Source text: as §1

The subject of assay [1] is 575 putative partners (preys) of 22 WT SH3-containing proteins. Briefly: DHFR-PCA on solid medium, WT and SH3-deleted baits (Fig. 1B). Details: key to Score: 0: SH3-independent; 1: SH3-dependent PPIs; 2: SH3-inhibited PPIs. The note with it: for medrep (log2 median colony size normalized to plate background, PCA score): label = prey; for Ratio (SH3-deleted/WT medrep): only significant differences shown, PPIs completely lost have a ratio of 0.1, gained PPIs 2.5. The method in brief:
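In S. cerevisiae, 22 SH3-containing baits fused genomically to DHFR F[1,2], either WT or with each SH3 replaced via CRISPR by a poly-Gly/Ser linker, screened against 575 DHFR F[3] preys plus 40 negative controls in 1536 arrays, preys duplicated at randomized positions.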

Another assay concerns Abp1 PPIs. As to the kind of experiment: DHFR-PCA of Abp1 SH3-swapped baits (Fig. 2B-D, S2C, S2F). The note with it: Fig2B; bait ABP1, label = prey; Replicates 4. The method, boiled down: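 Yeast DHFR-PCA in which Abp1 baits, carrying their SH3 replaced by CRISPR–Cas9 with one of 27 yeast SH3s or human CTTN, HCLS1 or DBNL SH3s, were mated against 575 SH3-associated DHFR F[3] preys plus 40 negative controls. Four tests were run per PPI. Diploids were selected twice (48 h, 30 °C), then grown 4 days on PCA selection media.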

The next assay relates to BEM1-1. Briefly: DHFR-PCA on solid medium, bait BEM1-1 (Fig. 1B). The note with it: bait BEM1-1, label = prey.
Source text: as §1

Another assay deals with BEM1-2. Briefly: DHFR-PCA on solid medium, bait BEM1-2 (Fig. 1B). The note with it: bait BEM1-2, label = prey; 2-8 replicates.
Source text: as §1

[2] abbreviates: bait SLA1-3, DHFR-PCA, Replicates 4 (2 for YCR009C, YDR388W, YIL033C).
Setting [3] is: bait SLA1-2, DHFR-PCA, Replicates 4 (2 for YCR009C, YDR388W).

B1: YIR006C (protein, UniProt P32521 1-1480, looked up)
Actin cytoskeleton-regulatory …: MYNPYQQQGMGYQQQQQQQQQQPNGFYPQQQQGQSSNQPQGQPQPQQQMAFNQPQATGIGGMPQSFGNSFSSMPQQPQTGYNNNGNNGSVYGNGNFGQQPQQQQQQAKPQHTGYVPNSSMPMMNTTGTMPPPNPAQQPQLQSIQPQGTGYYQAANTANVHSVQPLQSQGTGYYVSTPNLISSNQTQQPLQAQGTGYYQSQPQQVPPPQQAQSLQPLKPQQTGFYLQPQNQAPLEPLKPTATGFVNSFANNGLNNDIKIPAIRLSFITAQDQAKFETLFRSIVTNGSNTVSGANCRKILMRSGLPPSQLARIWTLCDTSKAGELLFPEFALAMHLINDVLQGDTIPYELDSKTKNEVSSFIDAINLSIANQDSSANDAPKTPFDEFITAGVQNLQPQPTGYMPQTSFGIPLQSQITGGGVASALNPQSTGFMAPTTFNMSMNTGTPGLNPQITGGAPASMQPNITGNALQPQTTGMMPQTTGMMPQTTGMMPQTSFGVNLGPQLTGGALQSQYTGGYGSVMPQQSGPASMPNLSFNQQGLQSQLTGLQPQPTGFLPPSNFSATMPLTAQKTGFGNNEIYTKSNFNNNLIDNSSQDKISTEEKSLFYKIFETFDTQNKGLLDSPTAVEIFRKSGLNRADLEQIWNLCDINNTGQLNKQEFALGMHLVYGKLNGKPIPNVLPSSLIPSSTKLLDNLKNQLKTEPTTTKEKPSFGKIDALSYKNNDDDVLPNYRNRRKVYSAKNEEQSSFSSPSAKSVNHSSSTLQTDDISVDKTVEKKTAKPKYAGFSREINLKNIASLENEIKNISNPENCYDSSIPSDLTSRFDAIIAKLPNLFNEISTIDNEITNAKIQLYRKKNPSSIIGSGPNGEITENDRKKAKSRALLRARMSALTGKSTESEDSLSMEDEQQSAEIKRIQQENGKNQEIIKDIRSSISDISASLKSTMTGSNMISNQEFERWEFGIGLEDGVREFLDDLKSNSNKSVTESSPFVPSSTPTPVDDRSSSPSYSQFKTAEERAAYLKEQAKKRMKEKLAKFDKNRRNVTQSSRSISSENSREQPQQIAGSSNLVEPRATPFQEEKYVEVAQPTQPVQSTQPVQPTQPVQPTQPVQPTQPVQPTQPVQPTQPVQNVYNAKQESDDEDEDDEEKRLQEELKRLKLKKKADKEKRLAALRKQIEDAQNESDEEETNGKDNFGGHVNVPQAAPVAPSAAFSQNSTNAPRSVHAAVTPAAGKNSTGLPSTTMGHNPYFKDASASSTSTFDARAAEMQRRIQRGLDEDEDDGWSDEDESNNRVAVDNKVEEAKIGHPDHARAPPVTAAPLPSVTPVPPAVPVPQANTSNEKSSPIPIAPIPPSVTQEPPVPLAPPLPAVDGFQEPPIPSAPAIATAVQKSGSSTPALAGGVLPPPPPLPTQQASTSEPIIAHVDNYNGAEKGTGAYGSDSDDDVLSIPESVGTDEEEEGAQPVSTAGIPSIPPAGIPPPPPLP
Take B1: the “medrep (log2 median colony size normalized to plate background, PCA score)” value in the assay with BBC1 is given as 1.896; with ABP1, 5.062; in assay [1] (setting [2]), 4.7899. Besides, the “Ratio (SH3-deleted/WT medrep)” value in the assay on BBC1 is recorded as 0.4416. The Score in assay [1] (bait SLA1-3, label = prey) is 0.

B2: YLR337C (protein, UniProt P37370 1-817, looked up)
Verprolin: MAGAPAPPPPPPPPALGGSAPKPAKSVMQGRDALLGDIRKGMKLKKAETNDRSAPIVGGGVVSSASGSSGTVSSKGPSMSAPPIPGMGAPQLGDILAGGIPKLKHINNNASTKPSPSASAPPIPGAVPSVAAPPIPNAPLSPAPAVPSIPSSSAPPIPDIPSSAAPPIPIVPSSPAPPLPLSGASAPKVPQNRPHMPSVRPAHRSHQRKSSNISLPSVSAPPLPSASLPTHVSNPPQAPPPPPTPTIGLDSKNIKPTDNAVSPPSSEVPAGGLPFLAEINARRSERGAVEGVSSTKIQTENHKSPSQPPLPSSAPPIPTSHAPPLPPTAPPPPSLPNVTSAPKKATSAPAPPPPPLPAAMSSASTNSVKATPVPPTLAPPLPNTTSVPPNKASSMPAPPPPPPPPPGAFSTSSALSASSIPLAPLPPPPPPSVATSVPSAPPPPPTLTTNKPSASSKQSKISSSSSSSAVTPGGPLPFLAEIQKKRDDRFVVGGDTGYTTQDKQEDVIGSSKDDNVRPSPISPSINPPKQSSQNGMSFLDEIESKLHKQTSSNAFNAPPPHTDAMAPPLPPSAPPPPITSLPTPTASGDDHTNDKSETVLGMKKAKAPALPGHVPPPPVPPVLSDDSKNNVPAASLLHDVLPSSNLEKPPSPPVAAAPPLPTFSAPSLPQQSVSTSIPSPPPVAPTLSVRTETESISKNPTKSPPPPPSPSTMDTGTSNSPSKNLKQRLFSTGGSTLQHKHNTHTNQPDVDVGRYTIGGSNSIVGAKSGNERIVIDDSRFKWTNVSQMPKPRPFQNKTKLYPSGKGSSVPLDLTLFT
As to B2, the “medrep (log2 median colony size normalized to plate background, PCA score)” value in the assay on BBC1 amounted to 2.429; in the assay on ABP1, 4.481; in assay [1] (setting [3]), 2.095; in assay [1] (setting [2]), 4.892. Also, the “Ratio (SH3-deleted/WT medrep)” value with BBC1 stood at 0.57; in assay [1] (bait SLA1-2, label = prey), 0.4282. The Score is given as 1 in assay [1] (bait SLA1-2, label = prey) and 0 in assay [1] (bait SLA1-3, label = prey).

B3: YBL007C (protein, UniProt P32790 1-1244, looked up)
Actin cytoskeleton-regulatory …: MTVFLGIYRAVYAYEPQTPEELAIQEDDLLYLLQKSDIDDWWTVKKRVIGSDSEEPVGLVPSTYIEEAPVLKKVRAIYDYEQVQNADEELTFHENDVFDVFDDKDADWLLVKSTVSNEFGFIPGNYVEPENGSTSKQEQAPAAAEAPAATPAAAPASAAVLPTNFLPPPQHNDRARMMQSKEDQAPDEDEEGPPPAMPARPTATTETTDATAAAVRSRTRLSYSDNDNDDEEDDYYYNSNSNNVGNHEYNTEYHSWNVTEIEGRKKKKAKLSIGNNKINFIPQKGTPHEWSIDKLVSYDNEKKHMFLEFVDPYRSLELHTGNTTTCEEIMNIIGEYKGASRDPGLREVEMASKSKKRGIVQYDFMAESQDELTIKSGDKVYILDDKKSKDWWMCQLVDSGKSGLVPAQFIEPVRDKKHTESTASGIIKSIKKNFTKSPSRSRSRSRSKSNANASWKDDELQNDVVGSAAGKRSRKSSLSSHKKNSSATKDFPNPKKSRLWVDRSGTFKVDAEFIGCAKGKIHLHKANGVKIAVAADKLSNEDLAYVEKITGFSLEKFKANDGSSSRGTDSRDSERERRRRLKEQEEKERDRRLKERELYELKKARELLDEERSRLQEKELPPIKPPRPTSTTSVPNTTSVPPAESSNNNNSSNKYDWFEFFLNCGVDVSNCQRYTINFDREQLTEDMMPDINNSMLRTLGLREGDIVRVMKHLDKKFGRENIASIPTNATGNMFSQPDGSLNVATSPETSLPQQLLPQTTSPAQTAPSTSAETDDAWTVKPASKSESNLLSKKSEFTGSMQDLLDLQPLEPKKAAASTPEPNLKDLEPVKTGGTTVPAAPVSSAPVSSAPAPLDPFKTGGNNILPLSTGFVMMPMITGGDMLPMQRTGGFVVPQTTFGMQSQVTGGILPVQKTGNGLIPISNTGGAMMPQTTFGAAATVLPLQKTGGGLIPIATTGGAQFPQTSFNVQGQQQLPTGSILPVQKTANGLISANTGVSMPTVQRTGGTMIPQTSFGVSQQLTGGAMMTQPQNTGSAMMPQTSFNAVPQITGGAMMPQTSFNALPQVTGGAMMPLQRTGGALNTFNTGGAMIPQTSFSSQAQNTGGFRPQSQFGLTLQKTGGIAPLNQNQFTGGAMNTLSTGGVLQQQQPQTMNTFNTGGVMQELQMMTTFNTGGAMQQPQMMNTFNTDGIMQQPQMMNTFNTGGAMQQPQQQALQNQPTGFGFGNGPQQSRQANIFNATASNPFGF
With B3, in the assay on Abp1 PPIs, the “medrep (log2 median colony size normalized to plate background)” value is reported as 4.393. Besides, the “medrep (log2 median colony size normalized to plate background, PCA score)” value with BBC1 came out at 2.803; with ABP1, 4.393; in assay [1] (setting [2]), 4.843. The “Ratio (SH3-deleted/WT medrep)” value in the assay on BBC1 came to 0.1. Further, the Score in assay [1] (bait SLA1-3, label = prey) came to 0.

B4: YGR229C (protein, UniProt P32566 1-505, looked up)
Cell wall assembly regulator …: MDLFKRKVKEWVYSLSTDDHYAEYNPDETPTFNMGKRLNSNNGQVNPSQMHLNSVDEEMSMGFQNGVPSNEDINIDEFTSTESNDGVSETLLAWRHIDFWTSEHNPDLNATLSDPCTQNDITHAEEDLEVSFPNPVKASFKIHDGQEDLESMTGTSGLFYGFQLMTLDQVVAMTQAWRNVAKNLNKRSQQGLSHVTSTGSSSSMERLNGNKFKLPNIPDQKSIPPNAVQPVYAHPAWIPLITDNAGNHIGVDLAPGPNGKYAQIITFGRDFDTKFVIAENWGEFLLSFANDLEAGNWYLVDDNDDYFSGDGELVFRDKKSNGPIQDYFEVLKRRTWIKYQENLRSQQQKSQPDTSLQEQKYVPASQKKVAAEQPSTLNAESIKGEDSGSADVQSVQDHESVKIVKTEPSEAETTTVNTESLGQAEHEIKADNVDIKQESERKEDEKQPKVEEKEHVENEHVTESAKKDDDVNKQTEEMNKKEENEIRSDDAKVEEAREEFENIAL
Regarding B4, the “medrep (log2 median colony size normalized to plate background, PCA score)” value with BBC1 is 2.755; in the assay with BEM1-1 (2-8 replicates), 1.341; in the assay on BEM1-2, 1.341; with ABP1 it was 3.977; in assay [1] (setting [3]), 3.075; in assay [1] (setting [2]), 3.075. Also, the “Ratio (SH3-deleted/WT medrep)” value in the assay on BBC1 was found to be 0.1; in the assay on BEM1-1 (only significant differences showed, PPIs completely lost have a ratio of 0.1 and the gained PPIs 2.5), 0.1; in assay [1] (bait SLA1-2, label = prey) it was 0.1. Besides, the Score in assay [1] (bait SLA1-2, label = prey) is 1; in assay [1] (bait SLA1-3, label = prey), 0.
